Data published in article PMC3989768, “Activation of the γ-Tubulin Complex by the Mto1/2 Complex” (Current Biology, 2014).

Target: the molecule itself
Test: glycerol density-gradient centrifugation; material partially purified by Mto2-SZZ (IgG beads, TEV cleavage) from mto1[9A1-bonsai]-GFP or mto1Δ lysates, before and after 10-fold concentration; isokinetic glycerol gradient, 2.5 hr or 45 min; quantitative western blotting

B1: Mto2-S (the TEV protease cleavage product of Mto2-SZZ) (natural protein, Schizosaccharomyces pombe, UniProt Q9USP7 1-397, looked up)
chain: MSEHNYQSDREVAEDPFLNYEASANQLSSNSRESTPRGSPWRAGMRSASLMTEPLEDSMYSDNNYLDNGVSFTKDENPLYSPSWPSLADANVNSMKSNNAIQEHKAAKFVSEKSLEKVSTADNNLVLQELENLRERLNQVELQLSERPSSYLGYHNNLSPYRSPNSYPSLLPSTHSPHSPAPLSTMQTALMRLRTYHPSPIILKPVEQAVNHAITLVNTSPSSVVDALCRSLAELCLGLVQEAIDASILSQQESSNSLDLVRHTPPLNYTSSVDSSPQRMASDSYGRPSLHLNDPFPSVDLQSNELSHHNVRTTLFSDDSRFHSKIHTHSTPPSQMYSAASHFRYRSDPSTRHVSNSTNKSSLHPSPTSLRVAHPIIPQRASPASQSFPSLQDTPSP
notes: Mto2, Schizosaccharomyces pombe; source: S. pombe, partially purified (immunoglobulin G beads, TEV protease cleavage), enriched 3,400-fold
B1: binds.
